# From patent US20100168016A1, “DIAGNOSIS AND TREATMENT OF DISEASES CAUSED BY MISFOLDED PROTEINS” (THE JACKSON LABORATORY, priority 2007, published 2010)
# B1: ANKRD16^CAST: full length (361 amino acid) ANKRD16 from the CAST allele, expressed from congenic region or transgene in mice and cells (protein)
# chain: MALPGDPRRLCRLVQEGRLRDLQEELAVARGCRGPAGDTLLHCAARHGRQDILAYLVEAWSMDIEATNRDYKRPLHEAASMGHRDCVRYLLGRGAVVDSLKKADWTPLMMACTRKNLDVIQDLVEHGANPLLKNKDGWNSFHIASREGHPVILRYLLTVCPDAWKTESNIRRTPLHTAAMHGCLEAVQVLLERCHYEPDCRDNCGVTPFMDAIQCGHVSIAKLLLEQHKACSSAADSMGAQALHRAAVTGQDEAIRFLVCGLGIDVDVRAKSSQLTALHYAAKEGQTNTVQTLLSLGADINSTDERNRSVLHLACAGQHVACTRLLLQSGLKDSADLTGTLAQQLMRSVDILQDFDHDVKS
# Key:
# [1] = tested on: ubiquitin/proteasome pathway; assay: UbG76V-GFP proteasome reporter in mouse embryonic fibroblasts (FACS); format: cell-based; conditions: ANKRD16^CAST double transgenic fibroblasts, 1.5 uM epoximicin for 6 hours
# Procedure: FIG. 13. […] Mouse embryonic fibroblasts were analyzed from UbG76V-GFP transgenic and UbG76V-GFP; ANKRD16^CAST double transgenic mice; untreated and treated with 1000 nM epoximicin for 6; 12 or 18 hours (hr). The presence of the ANKRD16^CAST allele leads to reduced GFP intensity which correlates with increased proteasome activity.
# Two lines of transgenic mice, UB^G76V-1 and UB^G76V-2, were generated with a ubiquitin-fusion GFP driven by the chicken β-actin promoter (Lindsten et al., 2003a; Lindsten et al., 2003b). UbG76V-GFP transgenic mice are available from The Jackson Laboratory (stock number 008111 and 008112). These mice ubiquitously express transcripts for the transgene, but as expected from the short half-life of the modified GFP protein, GFP is undetectable in all tissues analyzed. […]
# UbG76V-GFP transgenic mice were intercrossed with the BAC transgenic mice carrying the CAST allele of ANKRD16, which gives rise to full length ANKRD16 mRNA and protein, yielding in double transgenic called UbG76V-GFP; ANKRD16^CAST. […] Using Western blot analysis the expression of ANKRD16 was analyzed showing an upregulation of ANKRD16 in the double transgenic mice UbG76V-GFP; ANKRD16 6^CAST. […]
# [2] = tested on: sti/sti embryonic fibroblasts; assay: serine-induced cell death in embryonic fibroblasts; format: cell-based, mouse; conditions: ANKRD16^CAST/+; sti/sti fibroblasts vs sti/sti, increasing serine
# From the text: FIG. 5. A graph depicting viability curves for mouse embryonic fibroblasts (MEFs) with increasing concentrations of serine in the culture media. ANKRD 16 (Stim^CAST) rescues serine-mediated cell death in sti/sti fibroblasts.
# We analyzed serine-induced cell death in +/+, ANKRD16^CAST/+; sti/sti, and sti/sti embryonic fibroblasts. Mouse embryonic fibroblasts were isolated from mouse embryos carrying no mutation (WT; C57BL/6J), the CAST-derived ANKRD16 gene (ANKRD16^CAST/+) and the sticky (sti/sti) mutation, or carrying the C57BL/6 ANKRD16 gene and the sti mutation (sti/sti).
# [3] = tested on: sti/sti Purkinje cells; assay: ubiquitinated protein inclusions in sti/sti Purkinje cells; format: in vivo, mouse; conditions: sti/sti mice, 4, 6 and 12 weeks of age
# From the text: FIGS. 9A and B. Graphs illustrating that the expression of full length ANKRD16 reduces protein inclusions in sti/sti Purkinje cells. Sti/sti means homozygous sticky mice (B6.Cg-Aarssti/J). ANKRD16; sti/sti means homozygous sticky mice intercrossed with mice expressing full length ANKRD16. […] 4W means brains were isolated from 4 week old mice, 6W for 6 week old mice and 12 W for 12 week old mice.
# Brains from homozygous sticky mice (sti/sti; B6.Cg-Aarssti/J; available from The Jackson Laboratory Stock Number 002560) and sticky mice intercrossed with transgenic mice expressing the full length ANKRD16, were isolated at the age of 4 weeks, 6 weeks and 12 weeks. The brains were processed for sectioning and antibody staining using standard histological methods. Sagittal sections were prepared and immunostained with antibodies against ubiquitin and calbindin. The antibodies against calbidin D-28 were used to visualize Purkinje cells. The antibodies against ubiquitin were used to visualize ubiquitinated protein aggregates. Purkinje cells with ubiquitinated aggregates were counted from three sections spaced at 100 micrometer beginning at midline and working laterally per mouse. Three mice from each genotype were analyzed. The total number of Purkinje cells with inclusions as well as the % of remaining Purkinje cells with inclusions are shown in the graphs in FIGS. 9A and 9B.
# [4] = tested on: sti/sti Purkinje cells; assay: Purkinje cell survival in sti/sti mice carrying the Pcp2-driven ANKRD16 transgene; format: in vivo, mouse
# From the text: To determine if ANKRD16 can rescue neuron death in a cell autonomous fashion, we transgenically expressed the ANKRD16 cDNA in Purkinje cells and examined the role of this transgene in Purkinje cell survival in sti/sti mice. ANKRD16 coding sequence was amplified by polymerase chain reaction from cDNA by using Pfu DNA polymerase (Stratagene), purified by agarose gel electrophoresis and ligated into the expression vector. Transgenic (TgPcp2-ANKRD16) mice carrying the full-length ANKRD16 cDNA (ANKRD16^361 or CAST allele) were generated on the inbred C57BL/6J background by microinjection of the purified DNA into C57BL/6J zygotes.
# [5] = tested on: mouse embryonic fibroblasts; assay: epoximicin-induced cell death of mouse embryonic fibroblasts (propidium iodide, FACS); format: cell-based; conditions: epoximicin 400 nM to 2500 nM for 18 hours
# Procedure: FIG. 14. […] Fibroblasts with different genotypes were compared: WT means C57BL/6J; UbG76VGFP transgenic and ANKRD16^CAST UbG76V-GFP double transgenic.
# Mouse embryonic fibroblasts were treated with 1.5 uM epoximicin for 6 hours before the GFP (green fluorescent protein) levels were analyzed by fluorescence microscopy (data not shown) or fluorescence-activated cell sorting (FACS) analysis (FIG. 13). Mouse embryonic fibroblasts not expressing the ANKRD16^CAST allele show a higher GFP level. […] The proteasome inhibitor epoximicin prevents the rapid degradation of GFP in the proteasome. […] Further the embryonic fibroblasts from the C57BL/6J wild type (WT), UbG76V-GFP transgenic and UbG76V-GFP; ANKRD16^CAST double transgenic mice were treated with various concentrations of epoximicin for 18 hours. The epoximicin concentrations ranged from 400 nM to 2500 nM (see FIG. 14). Fibroblasts were stained with propidium iodide to evaluate the percentage of cell death by FACS analysis.
# [6] = tested on: sticky mutant mice; assay: fertility (number of live offspring) of sticky mutant mice; format: in vivo, mouse; conditions: ANKRD16^CAST crossed into sti/sti; 7 matings, females 8-9 weeks
# Procedure: FIGS. 7. A graph depicting litter size (y axis) in WT, STIM and STI mice (x axis). Expression of ANKRD16 protein can restore the reduced fertility in sticky mutant mice. “WT” refers to C57BL/6J wild type mice, “STIM” refers to sticky mutant mice carrying the modifier gene ANKRD16, and STI means homozygous sticky mutant mice.
# Female mice of the various genotypes at the age of at 8-9 weeks were mated and the fertility was determined by counting the number of live offspring. When mating C57BL/6J mice (WT), which are wild type, the average litter size was 6.87 from 8 matings with a total of 55 offspring. […] When the modifier gene ANKRD16^CAST was crossed into the sti/sti mutations, the litter size was restored to normal with 6.51 pups from 7 matings with a total of 46 offspring. […] The CAST ANKRD16 is the full length version of ANKRD16, also called ANKRD^361.
molecule,measurement,setting,value
B1,green fluorescence from GFP,[1],greatly reduced
same,rescue from serine-induced cell death,[2],completely rescued
same,Purkinje cells with protein aggregates,[3],reduces Purkinje cells with protein aggregates
same,ataxia,"[4]; sti/sti mice carrying the transgene, 3 months of age",no signs of ataxia
same,Purkinje cell death (calbindin D-28 immunohistochemistry),"[4]; sti/sti mice, Pcp2 (L7) promoter",suppression of Purkinje cell death
same,cell death,[5],reduced cell death
same,litter size,[6],6.51 pups
